According to patent US20220168440A1, “ANTIBODY-PYRROLOBENZODIAZEPINE DEPRIVATIVE CONJUGATE” (DAIICHI SANKYO COMPANY, LIMITED, priority 2019, published 2022):

Legend:
[1] = system: KPL-4 cells; experiment: Cell growth inhibition of drug 1 (4), CellTiter-Glo; format: cell-based; settings: KPL4, 144 h; human breast cancer cell line; 6 days culture; read-out: anticellular effect IC50 on KPL-4 cells
Procedure: KPL-4 cells (Dr. Junichi Kurebayashi, Kawasaki Medical School, British Journal of Cancer, (1999) 79(5/6). 707-717), a human breast cancer cell line, were prepared with RPMI1640 Medium (Thermo Fisher Scientific; hereinafter, referred to as RPMI medium) containing 10% fetal bovine serum (Hyclone) to reach 6.25×10^3 cells/mL, and 80 μL portions of them were added to a 96-well cell culture microplate. After addition of the cells, the cells were cultured at 37° C. and 5% CO2 overnight.
On the next day, 20 μL portions of drug 1 diluted with RPMI medium to 100 nM, 20 nM, 4 nM, 0.8 nM, 0.16 nM, 0.032 nM, 6.4 pM, 1.3 pM, and 0.26 pM were added to the microplate. To each well without any antibody-drug conjugate, 20 μL of RPMI medium was added. KPL-4 was cultured at 37° C. and 5% CO2 for 6 days. After culturing, the microplate was taken out of the incubator, and left to stand at room temperature for 30 minutes. CellTiter-Glo Luminescent Cell Viability Assay (Promega Corporation) in an amount equivalent to that of the culture solution was added, and stirred using a plate mixer. The microplate was left to stand at room temperature for 10 minutes, and thereafter the amount of emission was measured by using a plate reader (PerkinElmer). Cell survival rates were calculated by using the same formula as in Example 37.

[2] = target: T1, human CLDN3 (human, UniProt O15551 1-220); experiment: flow cytometry on transiently transfected 293T cells
T1 construct: whole, on cells
T1 sequence (looked up): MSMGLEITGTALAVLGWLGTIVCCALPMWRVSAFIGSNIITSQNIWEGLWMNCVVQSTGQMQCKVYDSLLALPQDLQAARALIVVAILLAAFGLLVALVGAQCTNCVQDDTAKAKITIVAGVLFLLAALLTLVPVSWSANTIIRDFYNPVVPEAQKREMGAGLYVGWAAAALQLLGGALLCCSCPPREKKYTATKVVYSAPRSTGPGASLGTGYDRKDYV
Procedure: (§1) Binding activity of the mouse anti-CLDN6 antibodies produced in Example 6 to human CLDN6 and its family molecules, CLDN3, CLDN4, and CLDN9, was evaluated by using a flow cytometry method. Human CLDN3/pCMV6-Entry, human CLDN4/pCMV6-Entry, human CLDN6/pCMV-Entry, human CLDN9/pCMV6-Entry, or pCMV6-Entry purchased from OriGene Technologies, Inc. was transiently transferred into 293T cells (Thermo Fisher Scientific, HCL4517) by using Lipofectamine 2000 (Thermo Fisher Scientific), and the cells were cultured under conditions of 37° C. and 5% CO₂ overnight, and then a cell suspension was prepared. […] The cells were washed twice with Dulbecco's phosphate buffered saline (Sigma-Aldrich Co. LLC) containing 5% fetal bovine serum (Hyclone) (hereinafter, referred to as 5% FBS-containing PBS), and FLUORESCEIN-CONJUGATED GOAT IGG FRACTION TO MOUSE IGG (WHOLE MOLECULE) (MP Biomedicals, Inc.) 500-fold diluted with 5% FBS-containing PBS was then added thereto, and the cells were suspended and left to stand at 4° C. for 1 hour. After washing twice with 5% FBS-containing PBS, detection was carried out by using a flow cytometer (FC500; Beckman Coulter, Inc.). Data analysis was carried out by using FlowJo (Tree Star, Inc.). […] In each graph in FIG. 40, the ordinate represents FITC fluorescence intensity indicating the amount of the binding antibody and the abscissa represents antibody concentrations.
(§2) The binding activity of the humanized anti-CLDN6 antibody produced in Example 10 to human CLDN6 and its family molecules, CLDN3, CLDN4, and CLDN9, was evaluated by using a flow cytometry method.

[3] = target: T2, human CLDN4 (human, UniProt O14493 1-209); experiment: as above
T2 construct: whole, on cells
T2 sequence (looked up): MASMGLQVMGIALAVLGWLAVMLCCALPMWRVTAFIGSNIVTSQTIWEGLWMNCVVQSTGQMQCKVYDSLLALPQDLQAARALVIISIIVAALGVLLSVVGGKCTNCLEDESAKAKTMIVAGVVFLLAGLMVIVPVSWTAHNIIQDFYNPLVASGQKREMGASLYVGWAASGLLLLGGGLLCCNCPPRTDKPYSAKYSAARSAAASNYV
Procedure: as §1, §2

[4] = target: T3, human CLDN9 (human, UniProt O95484 1-217); experiment: as above
T3 construct: NP_066192; It was expressed on 293T cells transiently transfected with human CLDN9/pCMV6-Entry (OriGene); also called claudin-9
T3 sequence: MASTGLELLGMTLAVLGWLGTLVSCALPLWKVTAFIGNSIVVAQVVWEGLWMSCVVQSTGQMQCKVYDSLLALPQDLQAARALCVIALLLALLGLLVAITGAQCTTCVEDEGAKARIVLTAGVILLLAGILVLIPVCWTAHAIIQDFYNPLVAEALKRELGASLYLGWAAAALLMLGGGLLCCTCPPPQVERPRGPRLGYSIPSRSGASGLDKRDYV
Procedure: as §1, §2

[5] = target: T4, human CLDN6 (human, UniProt P56747 1-220); experiment: immunoprecipitation from NTERA-2 cell lysate, SDS-PAGE, mass spectrometry of the 18 kDa band
T4 construct: Four-transmembrane protein, NP_067018; It was also expressed on CHO-K1 cells by cDNA transfection; In the immunoprecipitation it was the endogenous protein from NTERA-2 cell lysate; also called hCLDN6; claudin-6
T4 sequence: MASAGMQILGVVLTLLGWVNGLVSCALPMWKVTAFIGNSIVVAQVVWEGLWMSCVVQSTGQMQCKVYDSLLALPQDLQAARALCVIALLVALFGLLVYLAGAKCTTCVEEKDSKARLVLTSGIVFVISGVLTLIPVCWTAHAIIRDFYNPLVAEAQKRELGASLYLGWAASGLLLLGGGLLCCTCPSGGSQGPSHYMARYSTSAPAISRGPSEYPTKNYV

[6] = target: T5, human claudin-6 (Homo sapiens, UniProt P56747); experiment: FACS analysis of 218B1/218C7 antibodies on human claudin-6-expressing CHO-K1 cells; format: binding; settings: forced expression by cDNA transfection
T5 construct: expressed in transfected cells; host or cells: CHO-K1 cells
T5 sequence (P56747 1-220): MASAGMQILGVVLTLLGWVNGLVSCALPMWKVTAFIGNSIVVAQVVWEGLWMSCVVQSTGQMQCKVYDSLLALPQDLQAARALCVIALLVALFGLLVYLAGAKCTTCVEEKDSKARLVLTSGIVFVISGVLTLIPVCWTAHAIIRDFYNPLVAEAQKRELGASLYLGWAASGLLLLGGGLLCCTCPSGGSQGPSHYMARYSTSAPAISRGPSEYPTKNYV
Procedure: Since the antigen for the 218B1 antibody and 218C7 antibody was estimated to be claudin-6 from the mass spectrometry, forced expression analysis by cDNA transfection was carried out.

[7] = system: BxPC-3; experiment: Internalization activity by Mab-ZAP (saporin-conjugated anti-mouse IgG), cell survival; format: cell-based; settings: human CLDN6-negative pancreatic cancer cell line BxPC-3; antibody 1 nM, Mab-ZAP 0.5 nM; 5 days
Procedure: (§3) Internalization activity of the mouse anti-CLDN6 antibodies B1 and C7 was evaluated by using the anti-mouse IgG reagent, to which a toxin that inhibits protein synthesis (saporin) had been conjugated, Mab-ZAP (Advanced Targeting Systems). In this evaluation, Mab-ZAP is incorporated into cells in a manner depending on the internalization activity of a mouse anti-CLDN6 antibody, and saporin, which inhibits protein synthesis, is released in the cells to suppress cell growth.
(§4) JEG-3(ATCC HTB-36), a human choriocarcinoma cell line of human CLDN6-positive cells, NIH:OVCAR-3 (ATCC HTB-161), a human ovarian cancer cell line of human CLDN6-positive cells, or BxPC-3 (ATCC CRL-1687), a human pancreatic cancer cell line of human CLDN6-negative cells, was seeded in a 96-well cell culture microplate at 2×10^3 cells/well, and cultured under conditions of 37° C. and 5% CO2 overnight. On the next day, a mixed solution obtained by mixing each mouse anti-CLDN6 antibody or mouse IgG1 antibody (R&D Systems, Inc.) to a final concentration of 1 nM, with Mab-ZAP (final concentration: 0.5 nM) or AffiniPure Goat Anti-Mouse IgG, Fcγ Fragment Specific (Jackson ImmunoResearch Laboratories Inc.) (final concentration: 0.5 nM), without conjugated toxin, was added, and the cells were cultured under conditions of 37° C. and 5% CO2 for 5 days. The number of surviving cells was determined through quantification of ATP activity by using CellTiter-Glo Luminescent Cell Viability Assay (Promega Corporation).

[8] = system: JEG-3; experiment: as above; format: cell-based; settings: human CLDN6-positive choriocarcinoma cell line JEG-3; antibody 1 nM, Mab-ZAP 0.5 nM; 5 days
Procedure: as §3, §4

[9] = system: NIH:OVCAR-3; experiment: as above; format: cell-based; settings: human CLDN6-positive ovarian cancer cell line NIH:OVCAR-3; antibody 1 nM, Mab-ZAP 0.5 nM; 5 days
Procedure: as §3, §4

[10] = target: T4, human CLDN6; experiment: FACS on CHO-K1 cells transfected with human claudin-6 cDNA

COc1ccc(C2=CN3C(=O)c4cc(OC)c(OCCCCCOc5cc6c(cc5OC)C(=O)N5CC7(CC7)C[C@H]5C=N6)cc4NC[C@@H]3C2)cc1 [Drug 1, (11a′S)-7′-Methoxy-8′-[(5-{[(11aS)-7-methoxy-2-(4-methoxyphenyl)-5-oxo-5,10,11,11a-tetrahydro-1H-pyrrolo[2,1-c][1,4]benzodiazepin-8-yl]oxy}pentyl)oxy]-1′,11a′-dihydro-5′H-spiro[cyclopropane-1,2′-pyrrolo[2,1-c][1,4]benzodiazepine]-5′-one] showed an IC50 [1] of 0.01 to 0.02 nM.

B1: mouse anti-CLDN6 antibody B1 (antibody, V domains shown)
VH: EVQLQQSGPELVKPGASVKISCKTSGYTFTEYTMHWVQQSHGKSLEWIGGVNPNSGDTSYNQKFKGKATLTVDKSSSTAYMELRSLTSEDSAVYYCARPGGYDVGYYAMDYWGQGTSVTVSS
VL: DIQMTQTASSLSASLGDRVTISCRASQDINNYLNWYQQKPDGTVKLLIYFTSRLHSGVPSRFSGSGSGTHYSLTITNLEQEDIATYFCQQGYPLPWTFGGGTKLEIK
notes: Mouse monoclonal antibody purified from hybridoma 218B1 culture supernatant; a mouse IgG1 antibody was used as the control; also called B1 antibody; 218B1 antibody
B1: no binding (tested: 30 µg/mL (highest concentration tested)) [2]; no binding (tested: 30 µg/mL (highest concentration tested)) [3]; binds [4]. B1: binds [5].

B2: C7: mouse anti-CLDN6 antibody; heavy/light chain variable regions SEQ ID NO: 25 and 23 (antibody, listed as Mus musculus, V domains shown)
VH: EVQLQQSGPELVKPGASVKISCKTSGYTFTEYTMHWVQQSHGKSLEWIGGVNPNSGDTSYNQKFKGKATLTVDKSSSTAYMELRSLTSEDSAVYYCARPGGYDVGYYAMDYWGQGTSVTVSS
VL: DIQMTQTASSLSASLGDRVTISCRASQDINNYLNWYQQKPDGTVKLLIYSTSRLHSGVPSRFSGSGSGTHYSLTITHLEQEDIATYFCQQGYPLPWTFGGGTKLEIK
modifications: amino acid sequence of variable region of C7 antibody heavy chain; amino acid sequence of variable region of C7 antibody light chain
With B2 the “FACS reaction for human claudin-6-expressing CHO-K1 cells” value [6] was “strong positive reaction”, the “cell growth-suppressing effect (relative survival rate) with Mab-ZAP” value [7] was “no cell growth-suppressing effect” and the “cell growth-suppressing effect (relative survival rate) with Mab-ZAP” value [8] was “cell growth-suppressing effect”. For the same molecule, the “cell growth-suppressing effect (relative survival rate) with Mab-ZAP” value [9] was “cell growth-suppressing effect”.

B3: mouse anti-CLDN6 antibody C7 (antibody, V domains shown)
VH: EVQLQQSGPELVKPGASVKISCKTSGYTFTEYTMHWVQQSHGKSLEWIGGVNPNSGDTSYNQKFKGKATLTVDKSSSTAYMELRSLTSEDSAVYYCARPGGYDVGYYAMDYWGQGTSVTVSS
VL: DIQMTQTASSLSASLGDRVTISCRASQDINNYLNWYQQKPDGTVKLLIYSTSRLHSGVPSRFSGSGSGTHYSLTITHLEQEDIATYFCQQGYPLPWTFGGGTKLEIK
notes: Mouse monoclonal antibody purified from hybridoma 218C7 culture supernatant; a mouse IgG1 antibody was used as the control; also called C7 antibody; 218C7 antibody
B3: no binding (tested: 30 µg/mL (highest concentration tested)) [2]; no binding (tested: 30 µg/mL (highest concentration tested)) [3]; binds [4]. B3: binds [10].
